Measured values taken from patent US20220098287A1 (Teva, published 2022).
Where no end group is shown, it is not given here.

Target: T1, antibody G1 Fab fragment
T1 construct: also called TEV-48125; fremanezumab
Experiment: SPR (Biacore) competition: 50 nM G1 Fab pre-incubated 1 h with 10 µM competing peptide, then flowed over N-biotinylated human α-CGRP on SA chip
Text: Y axis represents percentage of binding blocked by the presence of the competing peptide compared with the binding in the absence of the competing peptide.
All these peptides are amidated at the C-terminus.

T1 sequence (VH, as listed by the source, chain 1 of 2): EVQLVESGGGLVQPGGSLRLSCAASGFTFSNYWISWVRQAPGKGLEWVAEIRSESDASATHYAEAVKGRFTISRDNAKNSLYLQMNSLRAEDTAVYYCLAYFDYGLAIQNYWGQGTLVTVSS
T1 sequence (VL, as listed by the source, chain 2 of 2): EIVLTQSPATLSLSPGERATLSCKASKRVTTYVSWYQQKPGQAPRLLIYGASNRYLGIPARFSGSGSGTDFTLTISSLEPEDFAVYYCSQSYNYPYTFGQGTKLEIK

B1: 19-36 CONH2 (peptide)
peptide: SGGVVKNNFVPTNVGSKA-NH2
notes: also called peptide fragment 19-36 (amidated at the C-terminus) of human α-CGRP
B1: no binding (tested: 10 µM).
